{"source": "patent US20100196951", "molecular_target": "MazE antitoxin with the Thrombin-recognition sequence LVPRGS in place of VDGK at positions 38 to 41 (UniProt P0AE72)"}
{"substance": "Biothinylated Thrombin (Novagen)", "values": [{"measurement": "removal of the MazE band on SDS-PAGE after overnight Thrombin treatment (0.01 to 0.08 units)", "result": "the residual MazE protein was successfully removed from the purified MazF sample by Thrombin treatment (lanes 2 to 5)"}]}
